Data on two variants can be found in IntAct's records for PubMed 21471202.

B1: Low-density lipoprotein receptor-related protein 4 (Homo sapiens), O75096 (parent)
chain: MRRQWGALLLGALLCAHGLASSPECACGRSHFTCAVSALGECTCIPAQWQCDGDNDCGDHSDEDGCILPTCSPLDFHCDNGKCIRRSWVCDGDNDCEDDSDEQDCPPRECEEDEFPCQNGYCIRSLWHCDGDNDCGDNSDEQCDMRKCSDKEFRCSDGSCIAEHWYCDGDTDCKDGSDEENCPSAVPAPPCNLEEFQCAYGRCILDIYHCDGDDDCGDWSDESDCSSHQPCRSGEFMCDSGLCINAGWRCDGDADCDDQSDERNCTTSMCTAEQFRCHSGRCVRLSWRCDGEDDCADNSDEENCENTGSPQCALDQFLCWNGRCIGQRKLCNGVNDCGDNSDESPQQNCRPRTGEENCNVNNGGCAQKCQMVRGAVQCTCHTGYRLTEDGHTCQDVNECAEEGYCSQGCTNSEGAFQCWCETGYELRPDRRSCKALGPEPVLLFANRIDIRQVLPHRSEYTLLLNNLENAIALDFHHRRELVFWSDVTLDRILRANLNGSNVEEVVSTGLESPGGLAVDWVHDKLYWTDSGTSRIEVANLDGAHRKVLLWQNLEKPRAIALHPMEGTIYWTDWGNTPRIEASSMDGSGRRIIADTHLFWPNGLTIDYAGRRMYWVDAKHHVIERANLDGSHRKAVISQGLPHPFAITVFEDSLYWTDWHTKSINSANKFTGKNQEIIRNKLHFPMDIHTLHPQRQPAGKNRCGDNNGGCTHLCLPSGQNYTCACPTGFRKISSHACAQSLDKFLLFARRMDIRRISFDTEDLSDDVIPLADVRSAVALDWDSRDDHVYWTDVSTDTISRAKWDGTGQEVVVDTSLESPAGLAIDWVTNKLYWTDAGTDRIEVANTDGSMRTVLIWENLDRPRDIVVEPMGGYMYWTDWGASPKIERAGMDASGRQVIISSNLTWPNGLAIDYGSQRLYWADAGMKTIEFAGLDGSKRKVLIGSQLPHPFGLTLYGERIYWTDWQTKSIQSADRLTGLDRETLQENLENLMDIHVFHRRRPPVSTPCAMENGGCSHLCLRSPNPSGFSCTCPTGINLLSDGKTCSPGMNSFLIFARRIDIRMVSLDIPYFADVVVPINITMKNTIAIGVDPQEGKVYWSDSTLHRISRANLDGSQHEDIITTGLQTTDGLAVDAIGRKVYWTDTGTNRIEVGNLDGSMRKVLVWQNLDSPRAIVLYHEMGFMYWTDWGENAKLERSGMDGSDRAVLINNNLGWPNGLTVDKASSQLLWADAHTERIEAADLNGANRHTLVSPVQHPYGLTLLDSYIYWTDWQTRSIHRADKGTGSNVILVRSNLPGLMDMQAVDRAQPLGFNKCGSRNGGCSHLCLPRPSGFSCACPTGIQLKGDGKTCDPSPETYLLFSSRGSIRRISLDTSDHTDVHVPVPELNNVISLDYDSVDGKVYYTDVFLDVIRRADLNGSNMETVIGRGLKTTDGLAVDWVARNLYWTDTGRNTIEASRLDGSCRKVLINNSLDEPRAIAVFPRKGYLFWTDWGHIAKIERANLDGSERKVLINTDLGWPNGLTLDYDTRRIYWVDAHLDRIESADLNGKLRQVLVSHVSHPFALTQQDRWIYWTDWQTKSIQRVDKYSGRNKETVLANVEGLMDIIVVSPQRQTGTNACGVNNGGCTHLCFARASDFVCACPDEPDSRPCSLVPGLVPPAPRATGMSEKSPVLPNTPPTTLYSSTTRTRTSLEEVEGRCSERDARLGLCARSNDAVPAAPGEGLHISYAIGGLLSILLILVVIAALMLYRHKKSKFTDPGMGNLTYSNPSYRTSTQEVKIEAIPKPAMYNQLCYKKEGGPDHNYTKEKIKIVEGICLLSGDDAEWDDLKQLRSSRGGLLRDHVCMKTDTVSIQASSGSLDDTETEQLLQEEQSECSSVHTAATPERRGSLPDTGWKHERKLSSESQV

The assay covers variants of B1. As to conditions: with sost_human SOST.
For the variant R1170W, the “effect of a mutation on the interaction” value is listed as “decreasing interaction”.

With W1186S, the “effect of a mutation on the interaction” value was “decreasing interaction”.
